B1: 2C5: PDGFRβ-specific human antibody binding both human and murine PDGFRβ; SEQ ID NOS in Table 1 (antibody, listed as Homo sapiens, V domains shown)
VH: QVQLVQSGAEVKKPGSSVKVSCKASGGTFSSYAISWVRQAPGQGLEWMGRIIPILGIANYAQKFQGRVTITADKSTSTAYMELSSLRSEDTAVYYCARDMGSRNYYYFYWGQGTLVTVSS
VL: EIVLTQSPATLSLSPGERATLSCRASQSVGRYLAWYQQKPGQAPRLLIYGASNRATGIPARFSGSGSGTDFTLTISSLEPEDFAVYYCQQRSNWPLTFGGGTKVEIK
B2: 1B3: human anti-mouse PDGFRβ antibody from Fab phage display library, human κ/γ1 constant regions; SEQ ID NOS in Table 1 (antibody, listed as Homo sapiens, V domains shown)
VH: QVQLQESGGGLVKPGGSLRLSCAASGFTFSSYSMNWVRQAPGKGLEWVSSISSSSSYIYYADSVKGRFTISRDNSKNTLYLQMNSLRAEDTAVYYCAKGGRPLLVFDFWGQGTLVTVS
VL: EIVMTQSPGTLSLSPGERATLSCRASQSVSSSYLAWYQQKPGQAPRLLIYDASKRATGIPARFSGSGSGTDFTLTISTLESEDSAVYYCQQRGYWPPITFGQGTRLEIKR
modifications: human kappa/gamma1 constant regions

How the values were obtained:
β1-3 = assay: Epitope mapping, shorter version of PDGFRβ (D1D2D3); format: binding; conditions: ✓ / X, key not given
Experimental: 2C5 binds to domain 1 (D1) and domain 2 (D2) of PDGFRβ. Various chimeric constructs of PDGFRβ and PDGFRα were first made by domain swapping, starting from N-terminus to C-terminus with PDGFRβ domain(s) replacing PDGFRα domain(s). The PDGFRβ/α chimera were tested for the ability of 2C5 binding. Shorter versions of PDGFRβ, including D1D2, D2D3 and D1D2D3, were then made to confirm the 2C5 binding domains on PDGFRβ.

h5β = h5β (Homo sapiens, UniProt P09619); assay: Epitope mapping; format: binding; conditions: ✓ / X, key not given
Chain of h5β (P09619 33-532 limits assumed): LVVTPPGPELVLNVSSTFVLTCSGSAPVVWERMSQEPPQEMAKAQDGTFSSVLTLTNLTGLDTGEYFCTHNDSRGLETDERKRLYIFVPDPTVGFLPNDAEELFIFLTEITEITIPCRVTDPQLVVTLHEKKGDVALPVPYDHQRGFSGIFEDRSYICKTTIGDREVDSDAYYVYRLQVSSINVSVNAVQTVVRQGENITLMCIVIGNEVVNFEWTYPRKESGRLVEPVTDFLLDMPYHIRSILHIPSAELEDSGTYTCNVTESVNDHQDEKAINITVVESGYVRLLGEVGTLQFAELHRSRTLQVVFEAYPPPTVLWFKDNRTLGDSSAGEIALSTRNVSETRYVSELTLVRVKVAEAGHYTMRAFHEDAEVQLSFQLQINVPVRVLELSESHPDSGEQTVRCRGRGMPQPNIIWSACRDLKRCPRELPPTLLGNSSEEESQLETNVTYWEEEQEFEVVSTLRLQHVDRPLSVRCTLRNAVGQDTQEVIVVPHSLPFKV
Experimental: Various chimeric constructs of PDGFRβ and PDGFRα were first made by domain swapping, starting from N-terminus to C-terminus with PDGFRβ domain(s) replacing PDGFRα domain(s). The PDGFRβ/α chimera were tested for the ability of 2C5 binding. Shorter versions of PDGFRβ, including D1D2, D2D3 and D1D2D3, were then made to confirm the 2C5 binding domains on PDGFRβ.

[1] = test system: blood vessels and pericytes in BxPC3 tumor xenografts; assay: Immunohistochemistry of tumor sections (CD31 / α-SMA double staining); format: in vivo, mouse; conditions: BxPC3 tumors, Day 34 post treatment
Text: FIG. 5 represents results of immunohistochemical analysis of human xenografts after treatment with 1B3, DC101, or DC101 plus 1B3. On Day 34 (BxPC3 model, panel A to C) or 50 (NCI-H460 model, panel D to F) post treatment, six mice from each group were sacrificed and tumors were processed for IHC analysis. Tumors were sectioned and double staining for both blood vessels (anti-CD31) and pericyte/SMC coverage (α-SMA, panel B and E). Five digital immunofluorescence images of tumor periphery and tumor core from each section were acquired and quantified for total CD31^+ vessels (panel A and D), α-SMA^+ vessels (panel B and E), and the percentage of dual CD31^+/α-SMA^+ over total CD31^+ vessels (panel C and F). Two different quantitation methods were used to measure the degree of vascularity of individual tumor sections: vessel density (numbers of vessels/[…]) and percentage of vessel area (% vessel area over total tumor area). For statistic analysis, two-way ANOVA followed by Fisher's LSD method was used for multiple comparisons (Sigma Stat 3.1 Systat Software, Inc., Point Richmond, Calif.). *P<0.05 compared to the saline group. Open bars, tumor periphery; solid bars, tumor core. […]
Immunofluorescence images (at 200× magnification) were acquired using EZ-C1 2.20 software through a digital camera connected to a confocal microscope (Nikon Eclipse TE2000U). Computer assisted morphologic quantification was performed using Image Pro Plus software (MediaCybernatics, Silver Spring, Md.) and analyzed from each section.
Five digital images of tumor periphery and tumor core from each section were counted for total CD31^+ vessels, α-SMA^+ vessels, mature vessels (dual CD31^+ and α-SMA^+), and the percentage of dual CD31^+/α-SMA^+ vessels over total CD31^+ vessels. Two different quantitation methods were used to measure the degree of vascularity of individual tumor sections: vessel density (numbers of vessels/[…]) and percentage of vessel area (% vessel area over total tumor area). Computer assisted morphologic quantification was performed using Image Pro Plus software. […]

Row | Molecule | binding to β1-3 (β1-3) | binding to h5β (h5β) | CD31^+ vessel density ([1]; 40 mg/kg three times a week) | α-SMA^+ vessel density / α-SMA staining ([1]; 40 mg/kg three times a week) | percentage of CD31/α-SMA double positive (mature) vessels over total CD31^+ vessels ([1]; versus saline)
1 | B1 | ✓ | ✓ | – | – | –
2 | B2 | – | – | no significant effect on overall tumor vessel density | reduced the α-SMA staining in tumor periphery | reduced percentage

From patent publication US7740850B2, “PDGFRβ-specific antibodies” (ImClone, LLC, priority 2007, dated 2010)
